Data taken from patent publication US12060408B2, “Screening assays, modulators and modulation of activation of Receptor for Advanced Glycation End-products (RAGE)” (Monash University, priority 2017, dated 2024).

Tests used:
IQGAP-1 = target: T1, IQGAP-1 (Cricetulus griseus, UniProt A0A8C2MPD4); experiment: Pull-down on column coated with S391A-RAGE362-404, proteomic analysis; format: binding; conditions: lysate of CHO cells stably transfected with Hs-AT1R; NiNTA column; FIG. 11C
T1 construct: 5×10^7 CHO cells stably transfected with Hs-AT1R were lysed using RIPA buffer; endogenous in cells; host or cells: lysate of CHO cells stably transfected with Hs-AT1R
Procedure: The TAT-Cherry-S391A-RAGE362-404 peptide and TAT-mCherry control peptide were bound to a gravity flow NiNTA column, and equilibrated using lysis buffer (50 mM Tris pH 7.5, 300 mM NaCl, 5 mM βB-mercaptoethanol, 10 mM imidazole. 5×10^7 CHO cells stably transfected with Hs-AT1R were lysed using RIPA buffer (1×PBS supplemented with 1% NP-40, 0.5% Na-deoxycholate with protease and phosphatase inhibitors), diluted to 50 ml in lysis buffer and passed over the Ni-NTA column twice by gravity flow. The 1 ml column was washed extensively (200 ml wash buffer-50 mM Tris pH 7.4, 300 mM NaCl, 5 mM β-mercaptoethanol, 20 mM imidazole). After washing, 2 ml of elution buffer (50 mM Tris pH 7.4, 300 mM NaCl, 5 mM β-mercaptoethanol, 250 mM imidazole) was applied to the column, and used to elute proteins that had bound to either the A peptide or TAT-mCherry control peptide. 1 ml of sample was delivered for proteomic analysis by Mass Spectroscopy. Venny 2.1.0 was used to generate lists of the proteins differentially bound to the two proteins.

AT1 = target: T2, AT1 (Homo sapiens, UniProt P30556); experiment: Classical GPCR signalling (IP-one HTRF, EGR1) in AT1R-CHO cells; format: cell-based; parameters: expressed in transfected cells; conditions: 1 μM
T2 sequence (P30556 1-359): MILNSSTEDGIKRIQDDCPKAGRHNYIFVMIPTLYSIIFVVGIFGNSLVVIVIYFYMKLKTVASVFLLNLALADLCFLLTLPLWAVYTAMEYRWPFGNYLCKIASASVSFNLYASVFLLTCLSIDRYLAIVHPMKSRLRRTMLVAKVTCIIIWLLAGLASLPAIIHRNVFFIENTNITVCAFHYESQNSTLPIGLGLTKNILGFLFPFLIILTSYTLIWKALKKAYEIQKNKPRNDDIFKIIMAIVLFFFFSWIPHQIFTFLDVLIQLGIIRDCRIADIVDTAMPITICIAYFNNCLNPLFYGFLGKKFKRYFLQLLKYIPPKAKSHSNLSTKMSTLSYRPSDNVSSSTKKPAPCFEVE
Procedure: Generation of Transgenic Chinese Hamster Ovary Cells
100 ng of AT1R-Rluc8 construct was transfected into CHO cells using Lipofectamine 2000 (Thermo). Stable transfectants were selected using G418. AT1R—CHO were then transiently transfected with RAGE constructs using Lipofectamine 2000 (Invitrogen) and incubated for 16 h.
Classical GPCR Signalling

T1 sequence (A0A8C2MPD4 1-1657): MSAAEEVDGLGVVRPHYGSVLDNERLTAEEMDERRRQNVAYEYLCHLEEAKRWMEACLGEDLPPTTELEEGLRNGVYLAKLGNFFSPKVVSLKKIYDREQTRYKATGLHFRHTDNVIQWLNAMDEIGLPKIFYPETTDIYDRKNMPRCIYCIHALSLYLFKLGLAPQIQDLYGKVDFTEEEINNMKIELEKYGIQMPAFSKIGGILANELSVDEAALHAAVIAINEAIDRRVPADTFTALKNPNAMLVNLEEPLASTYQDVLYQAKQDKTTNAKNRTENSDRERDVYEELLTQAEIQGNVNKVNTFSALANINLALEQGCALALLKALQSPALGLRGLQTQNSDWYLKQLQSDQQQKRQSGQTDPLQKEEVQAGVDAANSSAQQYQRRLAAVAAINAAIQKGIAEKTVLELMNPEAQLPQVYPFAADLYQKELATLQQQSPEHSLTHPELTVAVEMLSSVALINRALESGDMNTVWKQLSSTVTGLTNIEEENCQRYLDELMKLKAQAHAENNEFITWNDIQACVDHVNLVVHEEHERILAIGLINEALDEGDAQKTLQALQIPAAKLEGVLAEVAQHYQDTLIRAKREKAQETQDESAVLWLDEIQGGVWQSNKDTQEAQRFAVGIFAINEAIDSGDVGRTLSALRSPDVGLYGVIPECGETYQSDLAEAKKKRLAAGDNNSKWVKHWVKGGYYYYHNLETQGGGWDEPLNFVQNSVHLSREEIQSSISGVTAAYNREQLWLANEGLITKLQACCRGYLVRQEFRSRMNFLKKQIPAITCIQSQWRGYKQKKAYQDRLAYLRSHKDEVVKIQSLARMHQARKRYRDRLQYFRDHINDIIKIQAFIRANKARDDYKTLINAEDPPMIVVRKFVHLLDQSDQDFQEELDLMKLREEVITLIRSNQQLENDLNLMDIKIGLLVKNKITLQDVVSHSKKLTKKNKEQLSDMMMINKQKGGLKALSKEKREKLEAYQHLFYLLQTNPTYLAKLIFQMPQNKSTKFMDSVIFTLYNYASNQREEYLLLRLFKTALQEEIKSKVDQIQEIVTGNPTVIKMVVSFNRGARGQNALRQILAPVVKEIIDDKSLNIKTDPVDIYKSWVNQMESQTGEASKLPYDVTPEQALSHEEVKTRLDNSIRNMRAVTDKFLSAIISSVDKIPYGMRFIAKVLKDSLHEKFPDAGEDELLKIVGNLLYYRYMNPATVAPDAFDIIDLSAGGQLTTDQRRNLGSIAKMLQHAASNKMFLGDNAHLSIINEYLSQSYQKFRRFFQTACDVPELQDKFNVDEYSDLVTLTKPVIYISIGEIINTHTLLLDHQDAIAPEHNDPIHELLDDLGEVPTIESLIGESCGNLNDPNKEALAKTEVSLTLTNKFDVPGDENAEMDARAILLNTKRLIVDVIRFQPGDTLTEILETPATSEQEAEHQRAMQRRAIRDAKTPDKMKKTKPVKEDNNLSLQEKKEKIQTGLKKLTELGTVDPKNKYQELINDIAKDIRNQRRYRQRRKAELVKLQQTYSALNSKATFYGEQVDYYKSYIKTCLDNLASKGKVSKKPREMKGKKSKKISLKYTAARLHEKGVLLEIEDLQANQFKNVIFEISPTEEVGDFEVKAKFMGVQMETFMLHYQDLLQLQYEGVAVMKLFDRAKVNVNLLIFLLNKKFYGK

Row | Substance | association with IQGAP-1 (pull-down) (IQGAP-1) | classical responsiveness: inositol phosphate synthesis and EGR1 induction (AT1)
1 | L362WQRRQRRGEERKAPENQEEEEERAELNQAEEPEAGESSTGGP404 (LWQRRQRRGEERKAPENQEEEEERAELNQAEEPEAGESSTGGP; listed as Homo sapiens) [S391A-RAGE362-404, S391A mutant RAGE cytosolic tail; non-functional substitute for RAGE] | preferentially associates with IQGAP-1 | 
2 | angiotensin II (DRVYIHPF) [Ang II, cognate ligand of AT1R] |  | induction
